Laboratory results taken from IntAct's records for PubMed 17525731.

Legend:
creb1_mouse Creb1 [1] = target: creb1_mouse Creb1 (UniProt Q01147)
creb1_mouse Creb1 [2] = target: creb1_mouse Creb1 (UniProt Q01147); remark: listed apart in the source

Chain of Creb1, Q01147-1 (Q01147 other isoform, or with tags, fused parts or gaps): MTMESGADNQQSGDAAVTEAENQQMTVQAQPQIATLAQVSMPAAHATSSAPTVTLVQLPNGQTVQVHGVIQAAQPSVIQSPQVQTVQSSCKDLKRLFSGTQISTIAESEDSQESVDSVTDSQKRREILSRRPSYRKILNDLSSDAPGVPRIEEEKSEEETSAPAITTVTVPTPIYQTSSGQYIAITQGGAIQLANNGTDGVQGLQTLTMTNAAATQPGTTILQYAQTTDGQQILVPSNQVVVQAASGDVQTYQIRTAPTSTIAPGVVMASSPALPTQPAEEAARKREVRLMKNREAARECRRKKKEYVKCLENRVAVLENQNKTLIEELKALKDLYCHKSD
Chain of creb1_mouse Creb1 (Q01147 whole entry): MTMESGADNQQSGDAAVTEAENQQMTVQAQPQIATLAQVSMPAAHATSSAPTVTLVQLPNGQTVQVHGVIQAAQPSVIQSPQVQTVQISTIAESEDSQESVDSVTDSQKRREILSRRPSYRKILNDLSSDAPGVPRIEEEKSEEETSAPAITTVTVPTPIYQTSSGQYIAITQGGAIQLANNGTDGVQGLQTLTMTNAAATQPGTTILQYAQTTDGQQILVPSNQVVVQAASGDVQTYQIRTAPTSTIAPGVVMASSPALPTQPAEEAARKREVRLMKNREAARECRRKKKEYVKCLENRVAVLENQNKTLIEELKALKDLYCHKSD

| Substance | effect of a mutation on the interaction (creb1_mouse Creb1 [1]) | effect of a mutation on the interaction (Creb1, Q01147-1) | effect of a mutation on the interaction (creb1_mouse Creb1 [2]) |
| --- | --- | --- | --- |
| Histone lysine acetyltransferase CREBBP (Mus musculus), P45481 A654Q |  | disrupting interaction | disrupting interaction |
| Histone acetyltransferase p300 (Homo sapiens), Q09472 Y630A | disrupting interaction |  |  |
| Histone lysine acetyltransferase CREBBP (Mus musculus), P45481 Y650A |  | disrupting interaction | disrupting interaction |

The next lines start with the values.

| effect of a mutation on the interaction (creb1_mouse Creb1 [1]) | effect of a mutation on the interaction (Creb1, Q01147-1) | effect of a mutation on the interaction (creb1_mouse Creb1 [2]) | Substance |
| --- | --- | --- | --- |
| disrupting interaction |  |  | Histone acetyltransferase p300 (Homo sapiens), Q09472 A634Q |
| disrupting interaction |  |  | Histone acetyltransferase p300 (Homo sapiens), Q09472 Y638A |
|  | disrupting interaction | disrupting interaction | Histone lysine acetyltransferase CREBBP (Mus musculus), P45481 Y658A |
